Key:
Experiment in all cases: SPR
[1] = target: T1, murine CCL17 (mCCL17, TARC) (Mus musculus, UniProt Q9WUZ6 24-93)
T1 sequence: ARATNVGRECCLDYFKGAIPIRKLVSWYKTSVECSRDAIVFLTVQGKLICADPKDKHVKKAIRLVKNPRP

[2] = target: human CCL17 (hCCL17, TARC) (Homo sapiens, UniProt Q92583 24-94)
[3] = target: T1, murine CCL17 (mCCL17, TARC); remark: listed apart in the source

human CCL17 (hCCL17, TARC), sequence (Q92583 24-94): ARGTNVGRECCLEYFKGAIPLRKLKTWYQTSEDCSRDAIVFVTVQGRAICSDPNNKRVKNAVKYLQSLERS

B1: MF11.46 (structured_RNA)
RNA: GGGUCGUCGCGGGUUGGCUCGUAGAUCGGGCCGGUACAGACGACCC
modifications: 2'-fluoro pyrimidines
With B1 the Kd [1] was 0.9 ± 0.1 nM and the binding result [2] was “no binding”.

B2: control aptamer (scrambled MF35.47) (structured_RNA)
RNA: GGGGGCGUGUAUGCCAGACCUGCCGAUGUCCUUAAGGUCGACGCUGU
modifications: 2'-fluoro pyrimidines
B2: no binding [3].

B3: MF35.47 (structured_RNA)
RNA: GGGAGGACGAUGCGGGAGCAGCAUUUGUGGUUUCCCGAUCGCUUCCC
modifications: 2'-fluoro pyrimidines
For B3, the Kd [1] was 7.5 ± 1.5 nM and the binding result [2] was “no binding”.

— publication PMC5763148
